{"source": "paper PMC2515342", "key": {"[1]": {"biological_target": "apo-hemoglobin (hemoglobin lacking heme) (bovine) (UniProt P01966)", "test": "SPR"}, "[2]": {"biological_target": "hemoglobin (with bound heme) (bovine) (UniProt P01966)", "test": "SPR"}}, "data": [{"substance": "IsdX1 (GST removed with thrombin) (domain or fragment)", "values": [{"measurement": "Kd", "setting": "[1]", "value": 9.43, "unit": "mM"}, {"measurement": "Kd", "setting": "[2]", "value": 0.00733, "unit": "mM"}]}]}
